In patent publication US20200199241A1 (Chugai, published 2020):

T1: human FcγRIIb (human, UniProt P31994 43-217, limits assumed)
T1 construct: also called FcγIIB
T1 sequence: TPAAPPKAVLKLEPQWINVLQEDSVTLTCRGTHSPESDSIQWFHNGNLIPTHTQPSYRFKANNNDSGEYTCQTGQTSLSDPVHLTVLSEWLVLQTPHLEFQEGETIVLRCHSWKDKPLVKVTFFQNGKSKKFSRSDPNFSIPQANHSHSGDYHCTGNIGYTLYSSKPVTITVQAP

T2: human FcγRIIa type R (human, UniProt P12318 36-217)
T2 construct: also called FcγRIIaR; FcγRIIa(R)
T2 chain: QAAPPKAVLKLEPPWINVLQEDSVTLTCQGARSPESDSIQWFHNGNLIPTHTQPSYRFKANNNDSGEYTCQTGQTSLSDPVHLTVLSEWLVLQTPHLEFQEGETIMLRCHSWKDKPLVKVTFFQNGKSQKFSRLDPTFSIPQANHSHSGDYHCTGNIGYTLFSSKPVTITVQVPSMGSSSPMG


Columns and labels:
[1] = target: T1, human FcγRIIb; experiment: SPR (Biacore), binding amount relative to IL6R-F652/IL6R-L = 100
[2] = target: T2, human FcγRIIa type R; experiment: as above
[3] = target: T1, human FcγRIIb; experiment: SPR (Biacore); ratio against parent IL6R-F11/IL6R-L
[4] = target: T1, human FcγRIIb; experiment: SPR (Biacore); KD for FcγRIIaH divided by KD for FcγRIIb of the same antibody
[5] = target: T1, human FcγRIIb; experiment: SPR (Biacore); KD for FcγRIIaR divided by KD for FcγRIIb of the same antibody
[6] = target: T3, human FcγRIa (human, UniProt P12314 16-292, limits assumed); experiment: SPR (Biacore), antibody captured, FcγR as analyte
T3 construct: also called CD64
T3 sequence (P12314 16-292 limits assumed): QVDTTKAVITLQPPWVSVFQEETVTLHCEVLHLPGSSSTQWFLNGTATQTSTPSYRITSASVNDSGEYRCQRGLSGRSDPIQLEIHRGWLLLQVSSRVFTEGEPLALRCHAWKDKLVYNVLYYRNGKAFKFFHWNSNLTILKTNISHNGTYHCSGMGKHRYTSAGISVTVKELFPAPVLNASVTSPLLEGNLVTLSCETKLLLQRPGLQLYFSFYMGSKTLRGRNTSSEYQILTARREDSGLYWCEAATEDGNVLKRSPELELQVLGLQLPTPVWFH

[7] = target: T1, human FcγRIIb; experiment: SPR (Biacore), antibody captured, FcγR as analyte
[8] = target: T2, human FcγRIIa type R; experiment: SPR (Biacore), antibody captured, FcγR as analyte

Binder	relative binding activity [1]	relative binding activity [2]	KD(IIb) of parent polypeptide/KD(IIb) of altered polypeptide [3]	KD(IIaH)/KD(IIb) [4]	KD(IIaR)/KD(IIb) [5]	Kd [6] [µM]	Kd [7] [µM]	Kd [8] [µM]
IL6R-PD086/IL6R-L (antibody, human IgG1, Alteration introduced into IL6R-F11; also called P238D/G237L; G237L/P238D) heavy: QVQLQESGPGLVKPSETLSLTCAVSGHSISHDHAWSWVRQPPGEGLEWIGFISYSGITNYNPSLQGRVTISRDNSKNTLYLQMNSLRAEDTAVYYCARSLARTTAMDYWGEGTLVTVSSASTKGPSVFPLAPSSKSTSGGTAALGCLVKDYFPEPVTVSWNSGALTSGVHTFPAVLQSSGLYSLSSVVTVPSSSLGTQTYICNVNHKPSNTKVDKKVEPKSCDKTHTCPPCPAPELLGLDSVFLFPPKPKDTLYISRTPEVTCVVVDVSHEDPEVKFNWYVDGVEVHNAKTKPREEQYNSTYRVVSVLTVLHQDWLNGKEYKCKVSNKALPAPIEKTISKAKGQPREPQVYTLPPSRDELTKNQVSLTCLVKGFYPSDIAVEWESNGQPENNYKTTPPVLDSDGSFFLYSKLTVDKSRWQQGNVFSCSVMHEALHYHYTQKSLSLSP light: DIQMTQSPSSLSASVGDRVTITCRASQDISSYLNWYQQKPGKAPKLLIYYTSRLHSGVPSRFSGSGSGTDFTFTISSLQPEDIATYYCQQGNTLPYTFGQGTKVEIK	112	268	2.7	7.1	6.9	0.12	2.6	18
IL6R-PD082/IL6R-L (antibody, human IgG1, Alteration introduced into IL6R-F11; also called P238D/G237F; G237F/P238D) heavy: QVQLQESGPGLVKPSETLSLTCAVSGHSISHDHAWSWVRQPPGEGLEWIGFISYSGITNYNPSLQGRVTISRDNSKNTLYLQMNSLRAEDTAVYYCARSLARTTAMDYWGEGTLVTVSSASTKGPSVFPLAPSSKSTSGGTAALGCLVKDYFPEPVTVSWNSGALTSGVHTFPAVLQSSGLYSLSSVVTVPSSSLGTQTYICNVNHKPSNTKVDKKVEPKSCDKTHTCPPCPAPELLGFDSVFLFPPKPKDTLYISRTPEVTCVVVDVSHEDPEVKFNWYVDGVEVHNAKTKPREEQYNSTYRVVSVLTVLHQDWLNGKEYKCKVSNKALPAPIEKTISKAKGQPREPQVYTLPPSRDELTKNQVSLTCLVKGFYPSDIAVEWESNGQPENNYKTTPPVLDSDGSFFLYSKLTVDKSRWQQGNVFSCSVMHEALHYHYTQKSLSLSP light: DIQMTQSPSSLSASVGDRVTITCRASQDISSYLNWYQQKPGKAPKLLIYYTSRLHSGVPSRFSGSGSGTDFTFTISSLQPEDIATYYCQQGNTLPYTFGQGTKVEIK	108	380	2	4.7	4.1	0.052	3.4	14
IL6R-PD081/IL6R-L (antibody, human IgG1, Alteration introduced into IL6R-F11; also called P238D/G237E; G237E/P238D) heavy: QVQLQESGPGLVKPSETLSLTCAVSGHSISHDHAWSWVRQPPGEGLEWIGFISYSGITNYNPSLQGRVTISRDNSKNTLYLQMNSLRAEDTAVYYCARSLARTTAMDYWGEGTLVTVSSASTKGPSVFPLAPSSKSTSGGTAALGCLVKDYFPEPVTVSWNSGALTSGVHTFPAVLQSSGLYSLSSVVTVPSSSLGTQTYICNVNHKPSNTKVDKKVEPKSCDKTHTCPPCPAPELLGEDSVFLFPPKPKDTLYISRTPEVTCVVVDVSHEDPEVKFNWYVDGVEVHNAKTKPREEQYNSTYRVVSVLTVLHQDWLNGKEYKCKVSNKALPAPIEKTISKAKGQPREPQVYTLPPSRDELTKNQVSLTCLVKGFYPSDIAVEWESNGQPENNYKTTPPVLDSDGSFFLYSKLTVDKSRWQQGNVFSCSVMHEALHYHYTQKSLSLSP light: DIQMTQSPSSLSASVGDRVTITCRASQDISSYLNWYQQKPGKAPKLLIYYTSRLHSGVPSRFSGSGSGTDFTFTISSLQPEDIATYYCQQGNTLPYTFGQGTKVEIK	101	117	1.9	7	10.6	0.34	3.6	38

Continued by falling Kd [6], values first:

relative binding activity [1]	relative binding activity [2]	KD(IIb) of parent polypeptide/KD(IIb) of altered polypeptide [3]	KD(IIaH)/KD(IIb) [4]	KD(IIaR)/KD(IIb) [5]	Kd [6] [µM]	Kd [7] [µM]	Kd [8] [µM]	Binder
101	138	2.3	7	10.5	0.14	3	32	IL6R-PD079/IL6R-L (antibody, human IgG1, Alteration introduced into IL6R-F11; also called P238D/G237A; G237A/P238D) heavy: QVQLQESGPGLVKPSETLSLTCAVSGHSISHDHAWSWVRQPPGEGLEWIGFISYSGITNYNPSLQGRVTISRDNSKNTLYLQMNSLRAEDTAVYYCARSLARTTAMDYWGEGTLVTVSSASTKGPSVFPLAPSSKSTSGGTAALGCLVKDYFPEPVTVSWNSGALTSGVHTFPAVLQSSGLYSLSSVVTVPSSSLGTQTYICNVNHKPSNTKVDKKVEPKSCDKTHTCPPCPAPELLGADSVFLFPPKPKDTLYISRTPEVTCVVVDVSHEDPEVKFNWYVDGVEVHNAKTKPREEQYNSTYRVVSVLTVLHQDWLNGKEYKCKVSNKALPAPIEKTISKAKGQPREPQVYTLPPSRDELTKNQVSLTCLVKGFYPSDIAVEWESNGQPENNYKTTPPVLDSDGSFFLYSKLTVDKSRWQQGNVFSCSVMHEALHYHYTQKSLSLSP light: DIQMTQSPSSLSASVGDRVTITCRASQDISSYLNWYQQKPGKAPKLLIYYTSRLHSGVPSRFSGSGSGTDFTFTISSLQPEDIATYYCQQGNTLPYTFGQGTKVEIK
112	175	4.2	14.4	15.9	0.075	1.6	26	IL6R-PD043/IL6R-L (antibody, human IgG1, Alteration introduced into IL6R-F11; also called P238D/L234Y; L234Y/P238D) heavy: QVQLQESGPGLVKPSETLSLTCAVSGHSISHDHAWSWVRQPPGEGLEWIGFISYSGITNYNPSLQGRVTISRDNSKNTLYLQMNSLRAEDTAVYYCARSLARTTAMDYWGEGTLVTVSSASTKGPSVFPLAPSSKSTSGGTAALGCLVKDYFPEPVTVSWNSGALTSGVHTFPAVLQSSGLYSLSSVVTVPSSSLGTQTYICNVNHKPSNTKVDKKVEPKSCDKTHTCPPCPAPEYLGGDSVFLFPPKPKDTLYISRTPEVTCVVVDVSHEDPEVKFNWYVDGVEVHNAKTKPREEQYNSTYRVVSVLTVLHQDWLNGKEYKCKVSNKALPAPIEKTISKAKGQPREPQVYTLPPSRDELTKNQVSLTCLVKGFYPSDIAVEWESNGQPENNYKTTPPVLDSDGSFFLYSKLTVDKSRWQQGNVFSCSVMHEALHYHYTQKSLSLSP light: DIQMTQSPSSLSASVGDRVTITCRASQDISSYLNWYQQKPGKAPKLLIYYTSRLHSGVPSRFSGSGSGTDFTFTISSLQPEDIATYYCQQGNTLPYTFGQGTKVEIK
109	196	2.4	7	7.7	0.052	2.9	22	IL6R-PD087/IL6R-L (antibody, human IgG1, Alteration introduced into IL6R-F11; also called P238D/G237M; G237M/P238D) heavy: QVQLQESGPGLVKPSETLSLTCAVSGHSISHDHAWSWVRQPPGEGLEWIGFISYSGITNYNPSLQGRVTISRDNSKNTLYLQMNSLRAEDTAVYYCARSLARTTAMDYWGEGTLVTVSSASTKGPSVFPLAPSSKSTSGGTAALGCLVKDYFPEPVTVSWNSGALTSGVHTFPAVLQSSGLYSLSSVVTVPSSSLGTQTYICNVNHKPSNTKVDKKVEPKSCDKTHTCPPCPAPELLGMDSVFLFPPKPKDTLYISRTPEVTCVVVDVSHEDPEVKFNWYVDGVEVHNAKTKPREEQYNSTYRVVSVLTVLHQDWLNGKEYKCKVSNKALPAPIEKTISKAKGQPREPQVYTLPPSRDELTKNQVSLTCLVKGFYPSDIAVEWESNGQPENNYKTTPPVLDSDGSFFLYSKLTVDKSRWQQGNVFSCSVMHEALHYHYTQKSLSLSP light: DIQMTQSPSSLSASVGDRVTITCRASQDISSYLNWYQQKPGKAPKLLIYYTSRLHSGVPSRFSGSGSGTDFTFTISSLQPEDIATYYCQQGNTLPYTFGQGTKVEIK
122	593	2.9	5.2	3.1	0.036	2.3	7.2	IL6R-PD094/IL6R-L (antibody, human IgG1, Alteration introduced into IL6R-F11; also called P238D/G237W; G237W/P238D) heavy: QVQLQESGPGLVKPSETLSLTCAVSGHSISHDHAWSWVRQPPGEGLEWIGFISYSGITNYNPSLQGRVTISRDNSKNTLYLQMNSLRAEDTAVYYCARSLARTTAMDYWGEGTLVTVSSASTKGPSVFPLAPSSKSTSGGTAALGCLVKDYFPEPVTVSWNSGALTSGVHTFPAVLQSSGLYSLSSVVTVPSSSLGTQTYICNVNHKPSNTKVDKKVEPKSCDKTHTCPPCPAPELLGWDSVFLFPPKPKDTLYISRTPEVTCVVVDVSHEDPEVKFNWYVDGVEVHNAKTKPREEQYNSTYRVVSVLTVLHQDWLNGKEYKCKVSNKALPAPIEKTISKAKGQPREPQVYTLPPSRDELTKNQVSLTCLVKGFYPSDIAVEWESNGQPENNYKTTPPVLDSDGSFFLYSKLTVDKSRWQQGNVFSCSVMHEALHYHYTQKSLSLSP light: DIQMTQSPSSLSASVGDRVTITCRASQDISSYLNWYQQKPGKAPKLLIYYTSRLHSGVPSRFSGSGSGTDFTFTISSLQPEDIATYYCQQGNTLPYTFGQGTKVEIK
